The target of test [1] is T1, murine OPGL ligand (amino acids 159-316) (murine, UniProt O35235 159-316).
T1 construct: range 159-316; Expressed in E. coli
T1 sequence (looked up): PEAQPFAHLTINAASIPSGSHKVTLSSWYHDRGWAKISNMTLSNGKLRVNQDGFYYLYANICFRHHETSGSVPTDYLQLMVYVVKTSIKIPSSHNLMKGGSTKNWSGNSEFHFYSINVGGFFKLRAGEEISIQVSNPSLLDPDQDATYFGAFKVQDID
Nature of the test: SPR, Biacore 2000, 25° C; ymkz5-receptor immobilized on CM5 chip, ligand injected. As for the experimental part:
(§1) Binding studies were performed to determine if various TNF ligand family members are ligands for the ymkz5-receptor. The only TNF ligand which bound to the ymkz5-receptor was murine TRAIL. The binding studies, based on surface plasmon resonance, were carried out with the automated, high throughput Biacore 2000 system at 25° C. according to the manufacturer's instructions (Biacore, Uppsula, Sweden) as follows:
(§2) The receptor was immobilized on a CM5 research grade amine coupling chip (Biacore) by placing 40 μg/ml of recombinant ymkz5-receptor diluted in HEPES buffered saline (HBS-P; Biacore) at pH 4.5 on the chip. The ligands were diluted in HSP-B buffer containing 10 μg/ml BSA and 4 mg/ml dextran to block nonspecific binding sites. The ligand samples were injected over the receptors at concentrations ranging from 2 nM to 100 nM. The chips were regenerated between ligand injections by washing 2 times for 3 minutes in 25 mM CAPS, 1 M NaCl pH 10.5.
(§3) The TNF ligands tested were: human flag TRAIL (amino acids 95-281, Genbank accession no. AAC50332), murine flag TRAIL (amino acids 99-291, Genbank accession no. NP 033451), murine Fc TRAIL, human OPGL ligand (amino acids 159-318), murine OPGL ligand (amino acids 159-316), human TNFα (amino acids 82-233, Genbank accession no. CAA26669), and murine TNFα (amino acids 82-233, Genbank accession no. CAA68530). The extracellular and […] portions of the ligands were recombinantly expressed in E.coli. Specifically, the denoted amino acids for each ligand indicate the portion of the ligand expressed recombinantly. Additionally, commercially available human Fas ligand (Alexis Biochemicals, San Diego, Calif.) was also tested.. Human DR5Fc, a known TRAIL receptor, was used as a control. Results of the assay were determined by detecting the change in mass on the chip as measured by changes in […] on the chip as indicated as resonance units.
In general terms: SPR reads the build-up and loss of mass on a sensor chip optically.

In test [2] the target is T2, murine TNFα (amino acids 82-233, Genbank accession no. CAA68530) (murine, UniProt P06804 82-233).
T2 construct: range 82-233; Expressed in E. coli
T2 sequence (looked up): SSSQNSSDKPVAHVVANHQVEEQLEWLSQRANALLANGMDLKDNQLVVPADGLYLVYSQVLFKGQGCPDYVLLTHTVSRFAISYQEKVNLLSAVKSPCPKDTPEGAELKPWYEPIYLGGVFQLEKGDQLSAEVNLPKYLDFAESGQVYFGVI
Described as above. The method, then: as §1, §2, §3

The target in test [3] is T3, human OPGL ligand (amino acids 159-318) (human, UniProt O14788 159-317).
T3 construct: range 159-318; Expressed in E. coli; The printed range may run past the end of the UniProt entry
T3 sequence (looked up): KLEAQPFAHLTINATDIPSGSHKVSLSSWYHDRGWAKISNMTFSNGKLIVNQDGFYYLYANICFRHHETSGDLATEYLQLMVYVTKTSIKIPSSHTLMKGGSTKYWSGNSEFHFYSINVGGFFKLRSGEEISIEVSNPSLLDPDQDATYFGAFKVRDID
The description is as above. The method, then: as §1, §2, §3

Test [4] deals with T4, human Fas ligand (Alexis Biochemicals) (human, UniProt P48023 103-281, limits assumed).
T4 construct: Bought; construct not described
T4 sequence (looked up): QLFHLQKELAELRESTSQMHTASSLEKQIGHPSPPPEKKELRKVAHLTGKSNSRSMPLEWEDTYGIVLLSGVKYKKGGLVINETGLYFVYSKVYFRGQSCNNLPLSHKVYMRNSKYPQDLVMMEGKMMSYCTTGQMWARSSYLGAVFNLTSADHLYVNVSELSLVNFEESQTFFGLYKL
The description is as above. As for the experimental part: as §1, §2, §3

For test [5], the target named is T5, human flag TRAIL (amino acids 95-281, Genbank accession no. AAC50332) (human, UniProt P50591 95-281).
T5 construct: range 95-281; Expressed in E. coli; not shown: flag tag
Described as above. The method, then:
as §1, §2, §3

Test [6] has as its target T6, human TNFα (amino acids 82-233, Genbank accession no. CAA26669) (human, UniProt P01375 82-233).
T6 construct: range 82-233; Expressed in E. coli
The description is as above. The method, then:
as §1, §2, §3

The target in another test is T7, active murine TRAIL (murine, UniProt P50592 99-291).
T7 construct: The result is told only for 'active murine TRAIL which was bioactive in cell culture assays'; The construct (flag-tagged 99-291 or Fc fusion) is not tied to the KD; also called murine flag TRAIL; murine Fc TRAIL
T7 sequence (looked up): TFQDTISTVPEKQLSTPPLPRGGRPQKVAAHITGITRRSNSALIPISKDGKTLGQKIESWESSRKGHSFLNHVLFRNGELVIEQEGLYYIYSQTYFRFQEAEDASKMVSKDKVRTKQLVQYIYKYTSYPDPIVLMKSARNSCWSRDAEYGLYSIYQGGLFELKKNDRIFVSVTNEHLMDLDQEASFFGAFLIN
Kind of test: SPR, Biacore 2000, 25° C; ymkz5-receptor amine-coupled on CM5 chip, ligand injected at 2 nM to 100 nM; receptor on the chip; active (bioactive) murine TRAIL as ligand. The method, then: as §1
The receptor was immobilized on a CM5 research grade amine coupling chip (Biacore) by placing 40 μg/ml of recombinant ymkz5-receptor diluted in HEPES buffered saline (HBS-P; Biacore) at pH 4.5 on the chip. The ligands were diluted in HSP-B buffer containing 10 μg/ml BSA and 4 mg/ml dextran to block nonspecific binding sites. […]
The TNF ligands tested were: human flag TRAIL (amino acids 95-281, Genbank accession no. AAC50332), murine flag TRAIL (amino acids 99-291, Genbank accession no. NP 033451), murine Fc TRAIL, human OPGL ligand (amino acids 159-318), murine OPGL ligand (amino acids 159-316), human TNFα (amino acids 82-233, Genbank accession no. CAA26669), and murine TNFα (amino acids 82-233, Genbank accession no. CAA68530). […] Results of the assay were determined by detecting the change in mass on the chip as measured by changes in […] on the chip as indicated as resonance units.

T6 sequence (P01375 82-233 limits assumed): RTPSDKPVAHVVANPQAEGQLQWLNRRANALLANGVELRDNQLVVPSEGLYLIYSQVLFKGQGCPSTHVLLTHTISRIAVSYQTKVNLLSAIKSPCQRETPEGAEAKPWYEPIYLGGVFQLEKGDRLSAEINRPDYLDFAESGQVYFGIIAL
T5 sequence (P50591 95-281 limits assumed): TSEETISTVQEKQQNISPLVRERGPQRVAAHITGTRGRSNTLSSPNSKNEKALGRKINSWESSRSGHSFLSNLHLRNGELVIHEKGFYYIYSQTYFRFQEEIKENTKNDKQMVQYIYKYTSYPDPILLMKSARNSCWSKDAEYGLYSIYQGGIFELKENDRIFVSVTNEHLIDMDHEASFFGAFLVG

B1: recombinant ymkz5-receptor (receptor)
chain: MPESYSFNCPDGEYQSNDVCCKTCPSGTFVKAPCKIPHTQGQCEKCHPGTFTGKDNGLHDCELCSTCDKDQNMVADCSATSDRKCECQIGLYYYDPKFPESCRPCTKCPQGIPVLQECNSTANTVC
With B1, the binding result in test [1], in test [2], in test [3], in test [4], in test [5] and in test [6] was “no binding” in each case. Further, the dissociation constant (Kd) – broadly, a measure of binding affinity in units of concentration – with active murine TRAIL was found to be 20.8 nM.

The values are drawn from patent publication US20030096355A1 (published 2003).
